According to US20240240209A1, “SYNTHESIS OF ENANTIOPURE CIS-A-IRONE FROM A RENEWABLE CARBON SOURCE” (Agency for Science, Technology and Research, priority 2021, published 2024):

B1: pMT1_E153K: pMT1 with E153K (protein)
chain: MPQEARTPQQQVTADEVGDWYDKFGEVYHLTLGESVHCGLWFPPDAPVPQDMELVTMSSQAQDRYTDYLIETLDPKAGQHLLDIGCGTGRTALKAARQRGIAVTGVAVSKEQIAAANRLAAGHGLTERLTFEVADAMRLPYEDESFDCAWAIKSLCHMDRAKALGEAWRVLKPGGDLLVLESVVTEELTEPETALFETLYAANVPPRLGEFFDIVSGAGFHTLSLKDLSANLAMTMNVFALGVYSRRAEFTERFGAEFVDGLLAGLGSAQETLIRKTRFFMATLRKPAV
B2: pMT1_E153L: pMT1 with E153L (protein)
chain: MPQEARTPQQQVTADEVGDWYDKFGEVYHLTLGESVHCGLWFPPDAPVPQDMELVTMSSQAQDRYTDYLIETLDPKAGQHLLDIGCGTGRTALKAARQRGIAVTGVAVSKEQIAAANRLAAGHGLTERLTFEVADAMRLPYEDESFDCAWAILSLCHMDRAKALGEAWRVLKPGGDLLVLESVVTEELTEPETALFETLYAANVPPRLGEFFDIVSGAGFHTLSLKDLSANLAMTMNVFALGVYSRRAEFTERFGAEFVDGLLAGLGSAQETLIRKTRFFMATLRKPAV
B3: pMT1_E153M: pMT1 with E153M (protein)
chain: MPQEARTPQQQVTADEVGDWYDKFGEVYHLTLGESVHCGLWFPPDAPVPQDMELVTMSSQAQDRYTDYLIETLDPKAGQHLLDIGCGTGRTALKAARQRGIAVTGVAVSKEQIAAANRLAAGHGLTERLTFEVADAMRLPYEDESFDCAWAIMSLCHMDRAKALGEAWRVLKPGGDLLVLESVVTEELTEPETALFETLYAANVPPRLGEFFDIVSGAGFHTLSLKDLSANLAMTMNVFALGVYSRRAEFTERFGAEFVDGLLAGLGSAQETLIRKTRFFMATLRKPAV
B4: pMT1_M236K: pMT1 with M236K (protein)
chain: MPQEARTPQQQVTADEVGDWYDKFGEVYHLTLGESVHCGLWFPPDAPVPQDMELVTMSSQAQDRYTDYLIETLDPKAGQHLLDIGCGTGRTALKAARQRGIAVTGVAVSKEQIAAANRLAAGHGLTERLTFEVADAMRLPYEDESFDCAWAIESLCHMDRAKALGEAWRVLKPGGDLLVLESVVTEELTEPETALFETLYAANVPPRLGEFFDIVSGAGFHTLSLKDLSANLAMTKNVFALGVYSRRAEFTERFGAEFVDGLLAGLGSAQETLIRKTRFFMATLRKPAV
B5: pMT1_M236L: pMT1 with M236L (protein)
chain: MPQEARTPQQQVTADEVGDWYDKFGEVYHLTLGESVHCGLWFPPDAPVPQDMELVTMSSQAQDRYTDYLIETLDPKAGQHLLDIGCGTGRTALKAARQRGIAVTGVAVSKEQIAAANRLAAGHGLTERLTFEVADAMRLPYEDESFDCAWAIESLCHMDRAKALGEAWRVLKPGGDLLVLESVVTEELTEPETALFETLYAANVPPRLGEFFDIVSGAGFHTLSLKDLSANLAMTLNVFALGVYSRRAEFTERFGAEFVDGLLAGLGSAQETLIRKTRFFMATLRKPAV
B6: pMT1_R160K: pMT1 with R160K (protein)
chain: MPQEARTPQQQVTADEVGDWYDKFGEVYHLTLGESVHCGLWFPPDAPVPQDMELVTMSSQAQDRYTDYLIETLDPKAGQHLLDIGCGTGRTALKAARQRGIAVTGVAVSKEQIAAANRLAAGHGLTERLTFEVADAMRLPYEDESFDCAWAIESLCHMDKAKALGEAWRVLKPGGDLLVLESVVTEELTEPETALFETLYAANVPPRLGEFFDIVSGAGFHTLSLKDLSANLAMTMNVFALGVYSRRAEFTERFGAEFVDGLLAGLGSAQETLIRKTRFFMATLRKPAV
B7: pMT1_R160N (protein)
chain: MPQEARTPQQQVTADEVGDWYDKFGEVYHLTLGESVHCGLWFPPDAPVPQDMELVTMSSQAQDRYTDYLIETLDPKAGQHLLDIGCGTGRTALKAARQRGIAVTGVAVSKEQIAAANRLAAGHGLTERLTFEVADAMRLPYEDESFDCAWAIESLCHMDNAKALGEAWRVLKPGGDLLVLESVVTEELTEPETALFETLYAANVPPRLGEFFDIVSGAGFHTLSLKDLSANLAMTMNVFALGVYSRRAEFTERFGAEFVDGLLAGLGSAQETLIRKTRFFMATLRKPAV
B8: pMT1_R160L (protein)
chain: MPQEARTPQQQVTADEVGDWYDKFGEVYHLTLGESVHCGLWFPPDAPVPQDMELVTMSSQAQDRYTDYLIETLDPKAGQHLLDIGCGTGRTALKAARQRGIAVTGVAVSKEQIAAANRLAAGHGLTERLTFEVADAMRLPYEDESFDCAWAIESLCHMDLAKALGEAWRVLKPGGDLLVLESVVTEELTEPETALFETLYAANVPPRLGEFFDIVSGAGFHTLSLKDLSANLAMTMNVFALGVYSRRAEFTERFGAEFVDGLLAGLGSAQETLIRKTRFFMATLRKPAV
B9: pMT1_R160M: pMT1 with R160M (protein)
chain: MPQEARTPQQQVTADEVGDWYDKFGEVYHLTLGESVHCGLWFPPDAPVPQDMELVTMSSQAQDRYTDYLIETLDPKAGQHLLDIGCGTGRTALKAARQRGIAVTGVAVSKEQIAAANRLAAGHGLTERLTFEVADAMRLPYEDESFDCAWAIESLCHMDMAKALGEAWRVLKPGGDLLVLESVVTEELTEPETALFETLYAANVPPRLGEFFDIVSGAGFHTLSLKDLSANLAMTMNVFALGVYSRRAEFTERFGAEFVDGLLAGLGSAQETLIRKTRFFMATLRKPAV
B10: pMT1_Y200K: pMT1 with Y200K (protein)
chain: MPQEARTPQQQVTADEVGDWYDKFGEVYHLTLGESVHCGLWFPPDAPVPQDMELVTMSSQAQDRYTDYLIETLDPKAGQHLLDIGCGTGRTALKAARQRGIAVTGVAVSKEQIAAANRLAAGHGLTERLTFEVADAMRLPYEDESFDCAWAIESLCHMDRAKALGEAWRVLKPGGDLLVLESVVTEELTEPETALFETLKAANVPPRLGEFFDIVSGAGFHTLSLKDLSANLAMTMNVFALGVYSRRAEFTERFGAEFVDGLLAGLGSAQETLIRKTRFFMATLRKPAV
B11: pMT1_Y200M: pMT1 with Y200M (protein)
chain: MPQEARTPQQQVTADEVGDWYDKFGEVYHLTLGESVHCGLWFPPDAPVPQDMELVTMSSQAQDRYTDYLIETLDPKAGQHLLDIGCGTGRTALKAARQRGIAVTGVAVSKEQIAAANRLAAGHGLTERLTFEVADAMRLPYEDESFDCAWAIESLCHMDRAKALGEAWRVLKPGGDLLVLESVVTEELTEPETALFETLMAANVPPRLGEFFDIVSGAGFHTLSLKDLSANLAMTMNVFALGVYSRRAEFTERFGAEFVDGLLAGLGSAQETLIRKTRFFMATLRKPAV
B12: pMT1_Y200N (protein)
chain: MPQEARTPQQQVTADEVGDWYDKFGEVYHLTLGESVHCGLWFPPDAPVPQDMELVTMSSQAQDRYTDYLIETLDPKAGQHLLDIGCGTGRTALKAARQRGIAVTGVAVSKEQIAAANRLAAGHGLTERLTFEVADAMRLPYEDESFDCAWAIESLCHMDRAKALGEAWRVLKPGGDLLVLESVVTEELTEPETALFETLNAANVPPRLGEFFDIVSGAGFHTLSLKDLSANLAMTMNVFALGVYSRRAEFTERFGAEFVDGLLAGLGSAQETLIRKTRFFMATLRKPAV

Experiment: Cell lysate reaction of pMT enzymes with psi-ionone, irones quantified by HS-SPME-GCMS
Format: biochemical
Settings: pMT1_E153 mutants; AUC vs non-mutated (=1)
Description: Using the structure of pMT1 in complex with the cofactor S-adenosyl-L-homocysteine (SAH) and the substrate teleocidin A1 (PDB id: 5GM2) as a template, pMT1 bound to each of the four isomers of α-irone was modelled with the aim of identifying amino acid residues that could be critical to increase cis-α-irone or decrease trans-α-irone production (FIGS. 2d and 2e). […] Site-directed mutagenesis of the 24 residues was carried out with degenerative primers. Subsequently, the mutants of each site were pooled together, and examined if the activity or product-selectivity of the pooled mutants were increased (FIG. 8). This reduced the number of screening reactions to 24, which is manageable when a high-throughput enzymatic assay is not available. […] One residue was chosen and subjected to site-saturation mutagenesis by using degenerative primers containing NNN or NNK. The plasmid library was then transformed into E. coli BL21 (DE3) cells and plated on agar plate containing autoinduction media^19. […] Subsequently, the colonies were collected and resuspended in phosphate saline buffer. Equal number of cells was taken for lysis and cell lysate reactions were carried out in capped SPME-GC vials at 28° C. for 2 days. HS-SPME-GCMS analysis was used to quantify the amount of irones produced by each pooled-colony reaction. […] 24 residues including the control Gly85 (G85m) were subjected to site-saturation mutagenesis, using pMT1 as the template. […] The amount of cis-α-irone produced was estimated based on the area under the gas chromatogram curve (AUC). The fold change is calculated by comparing the AUC of cis-α-irone produced by the mutant enzyme to that of non-mutated.
For each pMT mutant, it was transformed into BL21 and grown in autoinduction media with 5 mM lactose at 20° C. for 36 hrs. Then, cells were pelleted and concentrated 10 times by adding 1 ml of PBS. The OD600 was measured and 40*600 OD*ul cells were transferred into a new 1.5 ml tube. The cells were spun down and resuspended in 600 μl of lysis buffer (1×DNase buffer, 150 mM NaCl, 0.5% glycerol, 1 mg/ml lysozyme and 20U of DNasel). The cells were incubated for 2 hrs at 20° C. with shaking at 300 rpm. Following that, 2 cycles of freeze-thaw was done to completely lyse the cells. At the end of the 2nd thawing, the cell lysate was used to setup a 1 ml reaction in 2 ml GC vials. The reaction consisted of 50 mM Tris (pH7), 10 mM MgCl2, 60 mM NaCl, 0.2 mM SAM and 10 mg/L of psi-ionone and caryophyllene each. To this, 500 μl of cell lysate was added while the remaining 100 μl was used for SDS-PAGE to analyze the total and soluble protein expression. The reaction was incubated for 2 days at 28° C., 300 rpm prior to extraction of cis-α-irone with 500 μl hexane. From this, 20 μl of organic layer was taken into 180 μl hexane for GCMS analysis.
For the mutant pMT activity screening, the reactants and products were analyzed by head space solid phase microextraction (HS-SPME) coupled with an Agilent 5977B gas chromatography (GC) system equipped with Agilent DB-5 ms column (30 m×250 μm×0.25 μm) and mass spectrometry (MS) with high efficiency source. The reaction mixtures were carried out in SPME vials which were incubated at 60° C. for 20 mins to allow the release of volatile compounds. The absorbent fiber (50/30 μm divinylbenzol/carboxen/polydimethyl-SPME fiber, SUPELCO) was then exposed to the headspace of the vial for 20 mins. The extracted analytes were desorbed at the GC inlet at 250° C. for 1 min and injected into GC with a split ratio of 200:1. The GC oven temperature increased from 50° C. to 140° C. at a rate of 10° C./min and held at 140° C. for 10 min. Subsequently, the temperature was increased to 320° C. at a rate of 60° C./min and held at 320° C. for 2 mins.

Point of comparison: B3, “fold change in cis-α-irone produced” value 0.0. Against it:
- B1 — the same, 0.0
- B2 — the same, 0.0

Same assay, conditions: pMT1_M236 mutants; AUC vs non-mutated (=1)

Point of comparison: B4, “fold change in cis-α-irone produced” value 0.0. Against it:
- B5 — higher, 1.1

Same assay, conditions: pMT1_R160 mutants; AUC vs non-mutated (=1)

Point of comparison: B8, “fold change in cis-α-irone produced” value 0.9. Against it:
- B6 — lower, 0.0
- B7 — lower, 0.8
- B9 — the same, 0.9

Same assay, conditions: pMT1_Y200 mutants; AUC vs non-mutated (=1)

Point of comparison: B11, “fold change in cis-α-irone produced” value 0.4. Against it:
- B10 — lower, 0.0
- B12 — lower, 0.0
